B1: Divalent-cation tolerance protein CutA, P69488 (parent)
chain: MLDEKSSNTASVVVLCTAPDEATAQDLAAKVLAEKLAACATLIPGATSLYYWEGKLEQEYEVQMILKTTVSHQQALLECLKSHHPYQTPELLVLPVTHGDTDYLSWLNASLR

Variants of: B1
Conditions: Escherichia coli (strain K12), structure 3X3U, whole UniProt chain shown; for denaturant midpoint (higher = more stable) / ddG of mutation (higher = less stable): pH 8, 37 °C, GdnHCl, CD, Tris-HCl, reversible: yes; for Tm / change of melting temperature, mutant - wild type (higher = more stable): pH 9, Thermal, DSC, glycine Buffer, transition: 2, reversible: no

Variant: S11V E59K E61T
- denaturant midpoint (higher = more stable): 3.48 M

Variant: E59K E61V
- ddG of mutation (higher = less stable): -5.47 kcal/mol
- denaturant midpoint (higher = more stable): 3.24 M
- Tm: 104 °C
- change of melting temperature, mutant - wild type (higher = more stable): 14.4 °C

Variant: S11A
- Tm: 106 °C
- change of melting temperature, mutant - wild type (higher = more stable): 16.5 °C

Variant: S11I
- Tm: 103 °C
- change of melting temperature, mutant - wild type (higher = more stable): 12.8 °C

Variant: S11V
- denaturant midpoint (higher = more stable): 3.31 M
- Tm: 105 °C
- change of melting temperature, mutant - wild type (higher = more stable): 15.1 °C

Variant: Y86D
- ddG of mutation (higher = less stable): 6.38 kcal/mol
- denaturant midpoint (higher = more stable): 2.67 M
- Tm: 76.8 °C
- change of melting temperature, mutant - wild type (higher = more stable): -13.1 °C

Variant: S11V E61V
- denaturant midpoint (higher = more stable): 3.8 M
- Tm: 114 °C
- change of melting temperature, mutant - wild type (higher = more stable): 23.6 °C

Variant: S11V E61T
- denaturant midpoint (higher = more stable): 3.48 M
- Tm: 112 °C
- change of melting temperature, mutant - wild type (higher = more stable): 22.4 °C

Variant: G45Q
- Tm: 82.1 °C
- change of melting temperature, mutant - wild type (higher = more stable): -7.8 °C

Variant: Y60T
- Tm: 91.9 °C
- change of melting temperature, mutant - wild type (higher = more stable): 2 °C

Variant: Q73V
- denaturant midpoint (higher = more stable): 3.4 M
- Tm: 94 °C
- change of melting temperature, mutant - wild type (higher = more stable): 4.1 °C

Variant: S11V E61V Q73V
- denaturant midpoint (higher = more stable): 4.67 M

Variant: S11V E61T Q73V
- denaturant midpoint (higher = more stable): 4.2 M
- Tm: 114 °C
- change of melting temperature, mutant - wild type (higher = more stable): 23.7 °C

Variant: E61H
- Tm: 94.3 °C
- change of melting temperature, mutant - wild type (higher = more stable): 4.4 °C

Variant: E61V
- ddG of mutation (higher = less stable): -3.42 kcal/mol
- denaturant midpoint (higher = more stable): 3.29 M
- Tm: 103 °C
- change of melting temperature, mutant - wild type (higher = more stable): 13.5 °C

Variant: E61T
- ddG of mutation (higher = less stable): -3.15 kcal/mol
- denaturant midpoint (higher = more stable): 2.99 M
- Tm: 98.6 °C
- change of melting temperature, mutant - wild type (higher = more stable): 8.7 °C

Variant: E59Q
- Tm: 98.3 °C
- change of melting temperature, mutant - wild type (higher = more stable): 8.4 °C

Variant: E59K
- ddG of mutation (higher = less stable): -3.92 kcal/mol
- denaturant midpoint (higher = more stable): 3.01 M
- Tm: 104 °C
- change of melting temperature, mutant - wild type (higher = more stable): 14.3 °C

Variant: E59L
- ddG of mutation (higher = less stable): -2.89 kcal/mol
- denaturant midpoint (higher = more stable): 2.96 M
- Tm: 100 °C
- change of melting temperature, mutant - wild type (higher = more stable): 10.3 °C

From FireProtDB (doi:10.1093/jb/mvq079)
